In test [1] the target is T1, Human CLEC5A His Tag protein (ACROBiosystems, Cat #: CLA-H5243) (human, UniProt Q9NY25 28-188, limits assumed).
T1 construct: Bought protein with a His tag; also called recombinant human CLEC5A protein
T1 sequence: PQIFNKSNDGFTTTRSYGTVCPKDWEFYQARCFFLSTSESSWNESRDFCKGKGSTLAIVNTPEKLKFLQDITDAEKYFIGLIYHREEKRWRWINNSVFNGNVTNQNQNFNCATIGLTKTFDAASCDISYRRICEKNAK
In words: ELISA, plate coated with human CLEC5A. Background: ELISA stands for enzyme-linked immunosorbent assay.
Method: Protein antigen was aspirated, and wells were washed 3 times with 400 μL of wash buffer (0.05% Tween® 20 in PBS) using a plate washer. Anti-CLEC5A antibodies were prepared as the primary antibody at 5 μg/mL and serially diluted 3-fold through 11 points (diluted concentrations) with reagent buffer (PBS+0.05% BSA). 100 μL of primary antibody was added to appropriate wells and incubated for 1 hour at room temperature. Primary antibody was aspirated, and wells were washed 3 times with 400 μL of wash buffer (0.05% Tween® 20 in PBS) using a plate washer. […] Secondary antibody was aspirated, and wells were washed 3 times with 400 μL of wash buffer (0.05% Tween® 20 in PBS) using a plate washer. […] 100 μL of Fisher 1N Sulfuric Acid (Cat #: SA212-2) stop solution was added to each well and the plate was read in a plate reader at 450 nm. For analysis, OD450 of each antibody was plotted using GraphPad Prism software (Version 9.4.1; GraphPad Software Inc.).

Test [2] concerns the target T2, CD79b on Ramos cells and on endogenous B cells of human PBMCs (human, UniProt P40259 29-229).
T2 sequence (looked up): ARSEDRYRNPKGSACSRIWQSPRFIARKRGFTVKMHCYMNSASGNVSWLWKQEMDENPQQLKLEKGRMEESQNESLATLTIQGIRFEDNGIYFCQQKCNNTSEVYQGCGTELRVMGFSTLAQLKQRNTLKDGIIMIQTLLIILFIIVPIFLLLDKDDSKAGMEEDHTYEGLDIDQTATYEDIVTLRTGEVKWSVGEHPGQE
The test is described as follows: cell-based or functional assay.

In test [3] the target is T2, CD79b on Ramos cells and on endogenous …. The test is described as follows: cell-based or functional assay. This is another data set of the same source.
Test [4] has the same target. The test is described as follows: cell-based or functional assay. The source holds these as a separate data set.
Test [5] has the same target. In words: cell-based or functional assay. The source holds these as a separate data set.

The text below walks through data of US20260201033A1 (LTZ THERAPEUTICS, published 2026).

B1: h7G10, humanized anti-CLEC5A antibody (antibody, V domains shown)
VH: EQQLVESGGGVVQPGRSLRLSCAASGFSFSSGYDMCWVRQAPGKGLEWIACIYGGRSDNVYYARWAKGRFTISKDSSTNTVFLQMNSLRAEDTAVYFCARDYLYRGYIGGGYGRSNLWGPGTLVTVSS
VL: DVQMTQSPSSVSASVGDRVTITCRASEDIENCLAWYQQKPGKPPKLLIYQASKLPSGVPSRFSGSGSGTDYTLTISSLQPEDFATYYCQNPDYMRNTDNLFGGGTKVEIK
notes: also called humanized 7G10
For B1, in test [1], a half-maximal effect (EC50) was put at 0.22 nM.

B2: h6A5, humanized anti-CLEC5A antibody (antibody, V domains shown)
VH: EQQLVESGGGLVQPGGSLRLSCSASGFSFSSSYYMCWVRQAPGKGLELIACIYSSSGRTWYATWVNGRFTISRDTSKNTVYLQMNSLRAEDTAVYFCARSYAGYGGYGYAYFNLWGPGTLVTVSS
VL: EIVMTQSPATLSVSPGERATLSCQASEDIYSSLAWYQQKPGQRPRLLIYDASTLASGVPARFSGSGSGTEYTLTISSLQSEDFAVYYCQNYYDSTGSGYGAAFGGGTKVEIK
notes: also called humanized 6A5
Take B2: the EC50 – broadly, the concentration needed to bring the measured effect to its halfway point – in test [1] came out at 0.33 nM.

B3: h5C7, humanized anti-CLEC5A antibody (antibody, V domains shown)
VH: EQQLVESGGGLVKPGGSLRLSCAASGFSFSRSSYMCWVRQAPGKCLEWIGCLSVGDGHTYYASWAKGRFTISKDSAKNSVYLQMNSLRAEDTAVYFCARAPSYSGDGGHGYDLWGPGTLVTVSS
VL: DIQMTQSPSSLSASVGDRVTITCQASESVDRNNRLAWFQQKPGKPPKLLIYTTSTLASGVPSRFSGSGSGTDFTLTISSLQPEDVATYYCAGYRGAHTDGDAFGCGTKVEIK
notes: also called humanized 5C7
B3: the midpoint of the response in test [1], the EC50, lay at 0.44 nM.

B4: h13E6, humanized anti-CLEC5A antibody (antibody, V domains shown)
VH: EQQLLESGGGLVQPGGSLRLSCAASGFSFSSSYWLCWVRQAPGKGLEWIACIYGGSSRGTYYASWAKGRFTISKDSSKNTVYLQMNSLRAEDTAVYFCASHTYTYPRFSPYFNLWGPGTLVTVSS
VL: EFVMTQSPATLSVSPGERATLSCQASEDIESSLAWYQQKPGQPPRLLIYDASDLESGVPARFSGSGSGTEYTLTISSLQSEDFAVYFCQSAYYTGSADNTFGGGTKVEIK
notes: also called humanized 13E6
B4 gave an EC50 in test [1] of 0.12 nM.

B5: CD79b/5C7 (2+2 A) Fc-silenced (bispecific antibody, human IgG1, kappa, L234A L235A)
heavy: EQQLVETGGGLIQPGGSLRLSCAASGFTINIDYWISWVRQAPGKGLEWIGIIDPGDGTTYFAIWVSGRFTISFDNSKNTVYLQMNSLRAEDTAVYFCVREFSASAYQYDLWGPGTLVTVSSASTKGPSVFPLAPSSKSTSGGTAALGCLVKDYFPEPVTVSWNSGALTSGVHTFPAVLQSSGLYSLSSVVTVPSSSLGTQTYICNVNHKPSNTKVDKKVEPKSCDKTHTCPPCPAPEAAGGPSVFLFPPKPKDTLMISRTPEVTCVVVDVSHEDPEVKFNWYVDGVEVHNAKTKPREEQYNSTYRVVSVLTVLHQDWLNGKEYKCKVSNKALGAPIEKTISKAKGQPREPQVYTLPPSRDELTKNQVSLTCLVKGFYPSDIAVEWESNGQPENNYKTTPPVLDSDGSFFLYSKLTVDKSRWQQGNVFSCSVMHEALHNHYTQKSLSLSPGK
light: ELVMTQSPATLSVSPGERATLSCRASEDIENYLAWYQQKPGQPPRLLIYRASTLSSGVPARFSGSGSGTEFTLTISSLQSEDFAVYYCQQGYRNSNVDNPFGGGTKVEIKRTVAAPSVFIFPPSDEQLKSGTASVVCLLNNFYPREAKVQWKVDNALQSGNSQESVTEQDSKDSTYSLSSTLTLSKADYEKHKVYACEVTHQGLSSPVTKSFNRGECGGGGSGGGGSGGGGSDIQMTQSPSSLSASVGDRVTITCQASESVDRNNRLAWFQQKPGKPPKLLIYTTSTLASGVPSRFSGSGSGTDFTLTISSLQPEDVATYYCAGYRGAHTDGDAFGGGTKVEIKGGGGSGGGGSGGGGSGGGGSEQQLVESGGGLVKPGGSLRLSCAASGFSFSRSSYMCWVRQAPGKGLEWIGCLSVGDGHTYYASWAKGRFTISKDSAKNSVYLQMNSLRAEDTAVYFCARAPSYSGDGGHGYDLWGPGTLVTVSS
For B5, in test [2], the “IC50 (nM), Ramos cell killing by M0 macrophages, Donor 159” value was 0.002 nM and the “IC50 (nM), Ramos cell killing by M0 macrophages, Donor 161” value stood at 0.0006 nM.

B6: h3A7, humanized anti-CLEC5A antibody (antibody, V domains shown)
VH: EQQLLESGGGLVQPGGSLRLSCAASGFSFSGMYWICWVRQAPGKGLEWIACIYTGSSTTGYASWAKGRFTISKDSSKNTVYLQMNSLRAEDTAVYFCASPYGDSSHYRGLNLWGPGTLVTVSS
VL: DVQMTQSPSSLSASVGDRVTITCQASQRINNYLSWFQQKPGKPPKLLIYGAATLASGVPSRFSGSGSGTDYTLTISSLQPEDVATYYCQCTYGIPSSNYGFGGGTKVEIK
notes: also called humanized 3A7
Take B6: the midpoint of the response in test [1], the EC50, lay at 0.47 nM.

B7: CD79b/5C7 (2+1 A) Fc-optimized (bispecific antibody, human IgG1, kappa)
heavy 1: EQQLVETGGGLIQPGGSLRLSCAASGFTINIDYWISWVRQAPGKGLEWIGIIDPGDGTTYFAIWVSGRFTISFDNSKNTVYLQMNSLRAEDTAVYFCVREFSASAYQYDLWGPGTLVTVSSASTKGPSVFPLAPSSKSTSGGTAALGCLVKDYFPEPVTVSWNSGALTSGVHTFPAVLQSSGLYSLSSVVTVPSSSLGTQTYICNVNHKPSNTKVDKKVEPKSCDGGGGSGGGGSGGGGSEQQLVETGGGLIQPGGSLRLSCAASGFTINIDYWISWVRQAPGKGLEWIGIIDPGDGTTYFAIWVSGRFTISFDNSKNTVYLQMNSLRAEDTAVYFCVREFSASAYQYDLWGPGTLVTVSSASTKGPSVFPLAPSSKSTSGGTAALGCLVKDYFPEPVTVSWNSGALTSGVHTFPAVLQSSGLYSLSSVVTVPSSSLGTQTYICNVNHKPSNTKVDKKVEPKSCDKTHTCPPCPAPELLAGPSVFLFPPKPKDTLMISRTPEVTCVVVDVSHEDPEVKFNWYVDGVEVHNAKTKPREEQYNSTYRVVSVLTVLHQDWLNGKEYKCKVSNKALPLPEEKTISKAKGQPREPQVYTLPPSRDELTKNQVSLSCAVKGFYPSDIAVEWESNGQPENNYKTTPPVLDSDGSFFLVSKLTVDKSRWQQGNVFSCSVMHEALHNHYTQKSLSLSPGK
heavy 2: DIQMTQSPSSLSASVGDRVTITCQASESVDRNNRLAWFQQKPGKPPKLLIYTTSTLASGVPSRFSGSGSGTDFTLTISSLQPEDVATYYCAGYRGAHTDGDAFGGGTKVEIKGGGGSGGGGSGGGGSGGGGSEQQLVESGGGLVKPGGSLRLSCAASGFSFSRSSYMCWVRQAPGKGLEWIGCLSVGDGHTYYASWAKGRFTISKDSAKNSVYLQMNSLRAEDTAVYFCARAPSYSGDGGHGYDLWGPGTLVTVSSDKTHTCPPCPAPELLAGPSVFLFPPKPKDTLMISRTPEVTCVVVDVSHEDPEVKFNWYVDGVEVHNAKTKPREEQYNSTYRVVSVLTVLHQDWLNGKEYKCKVSNKALPLPEEKTISKAKGQPREPQVYTLPPSRDELTKNQVSLWCLVKGFYPSDIAVEWESNGQPENNYKTTPPVLDSDGSFFLYSKLTVDKSRWQQGNVFSCSVMHEALHNHYTQKSLSLSPGK
light: ELVMTQSPATLSVSPGERATLSCRASEDIENYLAWYQQKPGQPPRLLIYRASTLSSGVPARFSGSGSGTEFTLTISSLQSEDFAVYYCQQGYRNSNVDNPFGGGTKVEIKRTVAAPSVFIFPPSDEQLKSGTASVVCLLNNFYPREAKVQWKVDNALQSGNSQESVTEQDSKDSTYSLSSTLTLSKADYEKHKVYACEVTHQGLSSPVTKSFNRGEC
For B7, the “IC50 (nM), Ramos cell killing by M2 macrophages, Donor 022” value in test [3] stood at 0.002 nM. Further, the “IC50 (nM), killing of endogenous B cells by PBMCs, Donor 234” value in test [4] is 0.0178 nM. For the same molecule, in test [2], the “IC50 (nM), Ramos cell killing by M0 macrophages, Donor 022” value is 0.002 nM. The “IC50 (nM), Ramos cell killing by PBMCs (test 2), Donor 234” value in test [5] came out at 0.00472 nM.

B8: CD79b/5C7 (1+1 A) Fc-optimized (bispecific antibody, human IgG1, kappa)
heavy 1: EQQLVETGGGLIQPGGSLRLSCAASGFTINIDYWISWVRQAPGKGLEWIGIIDPGDGTTYFAIWVSGRFTISFDNSKNTVYLQMNSLRAEDTAVYFCVREFSASAYQYDLWGPGTLVTVSSASTKGPSVFPLAPSSKSTSGGTAALGCLVKDYFPEPVTVSWNSGALTSGVHTFPAVLQSSGLYSLSSVVTVPSSSLGTQTYICNVNHKPSNTKVDKKVEPKSCDKTHTCPPCPAPELLAGPSVFLFPPKPKDTLMISRTPEVTCVVVDVSHEDPEVKFNWYVDGVEVHNAKTKPREEQYNSTYRVVSVLTVLHQDWLNGKEYKCKVSNKALPLPEEKTISKAKGQPREPQVYTLPPSRDELTKNQVSLSCAVKGFYPSDIAVEWESNGQPENNYKTTPPVLDSDGSFFLVSKLTVDKSRWQQGNVFSCSVMHEALHNHYTQKSLSLSPGK
heavy 2: EQQLVESGGGLVKPGGSLRLSCAASGFSFSRSSYMCWVRQAPGKGLEWIGCLSVGDGHTYYASWAKGRFTISKDSAKNSVYLQMNSLRAEDTAVYFCARAPSYSGDGGHGYDLWGPGTLVTVSSASTKGPSVFPLAPSSKSTSGGTAALGCLVKDYFPEPVTVSWNSGALTSGVHTFPAVLQSSGLYSLSSVVTVPSSSLGTQTYICNVNHKPSNTKVDKKVEPKSCDKTHTCPPCPAPELLAGPSVFLFPPKPKDTLMISRTPEVTCVVVDVSHEDPEVKFNWYVDGVEVHNAKTKPREEQYNSTYRVVSVLTVLHQDWLNGKEYKCKVSNKALPLPEEKTISKAKGQPREPQVYTLPPSRDELTKNQVSLWCLVKGFYPSDIAVEWESNGQPENNYKTTPPVLDSDGSFFLYSKLTVDKSRWQQGNVFSCSVMHEALHNHYTQKSLSLSPGK
light 1: B7 light
light 2: DIQMTQSPSSLSASVGDRVTITCQASESVDRNNRLAWFQQKPGKPPKLLIYTTSTLASGVPSRFSGSGSGTDFTLTISSLQPEDVATYYCAGYRGAHTDGDAFGGGTKVEIKRTVAAPSVFIFPPSDEQLKSGTASVVCLLNNFYPREAKVQWKVDNALQSGNSQESVTEQDSKDSTYSLSSTLTLSKADYEKHKVYACEVTHQGLSSPVTKSFNRGEC
Regarding B8, the “IC50 (nM), Ramos cell killing by PBMCs (test 2), Donor 234” value in test [5] was 0.338 nM.
